This is an account of results in US20030199077.

T1: trypsin inhibitor type IV-0 (Ovo-inhibitor), Sigma T-1886 (UniProt P10184)
T1 sequence: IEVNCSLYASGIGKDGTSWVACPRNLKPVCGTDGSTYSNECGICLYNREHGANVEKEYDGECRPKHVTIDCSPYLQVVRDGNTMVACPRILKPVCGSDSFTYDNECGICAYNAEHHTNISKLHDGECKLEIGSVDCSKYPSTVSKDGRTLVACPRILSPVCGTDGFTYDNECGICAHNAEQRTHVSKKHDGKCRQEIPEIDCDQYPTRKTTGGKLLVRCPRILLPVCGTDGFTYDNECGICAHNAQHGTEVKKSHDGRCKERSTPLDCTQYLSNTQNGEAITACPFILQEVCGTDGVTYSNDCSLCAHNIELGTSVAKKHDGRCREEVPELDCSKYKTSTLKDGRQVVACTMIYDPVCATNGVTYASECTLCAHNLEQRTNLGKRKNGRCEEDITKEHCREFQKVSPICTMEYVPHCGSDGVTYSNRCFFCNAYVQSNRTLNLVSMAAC

T2: trypsin inhibitor type IV-0 (Ovo-inhibitor), Sigma T-1886, P10184
T2 chain: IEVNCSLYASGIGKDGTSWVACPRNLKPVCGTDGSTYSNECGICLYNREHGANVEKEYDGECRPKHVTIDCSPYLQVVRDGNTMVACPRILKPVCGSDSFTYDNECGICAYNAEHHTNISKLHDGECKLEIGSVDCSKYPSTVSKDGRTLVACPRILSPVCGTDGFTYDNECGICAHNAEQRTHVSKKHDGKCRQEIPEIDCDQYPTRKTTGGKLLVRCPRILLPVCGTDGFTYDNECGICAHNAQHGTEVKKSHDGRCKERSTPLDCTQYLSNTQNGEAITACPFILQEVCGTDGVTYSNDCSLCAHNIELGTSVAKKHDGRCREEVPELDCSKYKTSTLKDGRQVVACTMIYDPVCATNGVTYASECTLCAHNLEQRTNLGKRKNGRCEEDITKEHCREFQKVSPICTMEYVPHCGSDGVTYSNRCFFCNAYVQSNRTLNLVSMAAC

B1: Savinase® (subtilisin 309 from B. lentus, BLSAVI) (protein)
chain: AQSVPWGISRVQAPAAHNRGLTGSGVKVAVLDTGISTHPDLNIRGGASFVPGEPSTQDGNGHGTHVAGTIAALNNSIGVLGVAPSAELYAVKVLGASGSGSVSSIAQGLEWAGNNGMHVANLSLGSPSPSATLEQAVNSATSRGVLVVAASGNSGAGSISYPARYANAMAVGATDQNNNRASFSQYGAGLDIVAPGVNVQSTYPGSTYASLNGTSMATPHVAGAAALVKQKNPSWSNVQIRNHLKNTATSLGSTNLYGSGLVNAEAATR

One data set has as its target T1, trypsin inhibitor type IV-0 (Ovo-inhibitor), Sigma T-1886.
For “Savinase variant A98AI+A98G+S99H+G100S+S101A”, the Residual Activity (%) stood at 22%.
Take Savinase variant S99SD+S99A+P129PR: the Residual Activity (%) was determined as 21%.
For the molecule Savinase variant S99SD, the Residual Activity (%) was found to be 25%.
Still for that read-out and setting: the result for Savinase variant S99SD+S99A+D42DN reads 69.2%; that for Savinase variant S99SE, 27%; that for Savinase variant S99SD+S99A+L217LP, 97%.
Turning to Savinase variant S99SD+S99A+P129PD, the Residual Activity (%) was found to be 50%.
Regarding Savinase variant S99SD+S99A+A133E, the Residual Activity (%) was found to be 39%.
Still for that read-out and setting: then Savinase variant S99SN, with 19%.
Molecule Savinase variant S99SD+M222S gave a Residual Activity (%) of 25%.
Regarding Savinase variant S99SD+S99A+T143K, the Residual Activity (%) worked out at 23%.
Savinase variant S99SD+S99A+S216SDP yielded a Residual Activity (%) of 35%.
On the same count and under the same terms, then Savinase variant S99SD+S99A+P131T, with 35.6%; and “Savinase variant S99SD+S99A+L217F+A228V+A230V”, with 12%; and “Savinase variant A98AT+Y167A+R170S+A194P”, with 88%.
On the same count and under the same terms, the result for Savinase variant S99SR+S99T reads 67.7%.
As to Savinase variant S99SD+S99A+S216SP, the Residual Activity (%) was 29.2%.
Molecule Savinase variant S99SD+S99A returned a Residual Activity (%) of 27.3%.
Same read-out and setting: the result for Savinase variant S99SQ+S99T reads 25%.
Consider Savinase variant S99SD+N76D+A194P+A230V, for which the Residual Activity (%) is 18.4%.

The target of a further data set is T2, trypsin inhibitor type IV-0 ….
As to B1, the “Residual Activity (%)” value is recorded as less than 5%.
